# B1: S. cerevisiae Abp1 (full length; SH3 domain 535-592 mutated) / Hua2 (parent complex)
# chain 1: MALEPIDYTTHSREIDAEYLKIVRGSDPDTTWLIISPNAKKEYEPESTGSSFHDFLQLFDETKVQYGLARVSPPGSDVEKIIIIGWCPDSAPLKTRASFAANFAAVANNLFKGYHVQVTARDEDDLDENELLMKISNAAGARYSIQTSSKQQGKASTPPVKKSFTPSKSPAPVSKKEPVKTPSPAPAAKISSRVNDNNDDDDWNEPELKERDFDQAPLKPNQSSYKPIGKIDLQKVIAEEKAKEDPRLVQKPTAAGSKIDPSSDIANLKNESKLKRDSEFNSFLGTTKPPSMTESSLKNDDDKVIKGFRNEKSPAQLWAERKAKQNSGNAETKAEAPKPEVPEDEPEGEPDVKDLKSKFEGLAASEKEEEEMENKFAPPPKKSEPTIISPKPFSKPQEPVKAEEAEQPKTDYKKIGNPLPGMHIEADNEEEPEENDDDWDDDEDEAAQPPLPSRNVASGAPVQKEEPEQEEIAPSLPSRNSIPAPKQEEAPEQAPEEEIEEEAEEAAPQLPSRSSAAPPPPPRRATPEKKPKENPWATAEYDYDAAEDNELTFVENDKIINIEFVDDDWWLGELEKDGSKGLFPSNYVSLGN
# chain 2: MQQTKFGKMYLDHDSVVEYSEDEIVEADRITLGYKKRLSMIENQMRHLLEDFSLDVQQIEPILADLQKYYDAFLQLLQKRNKSLQCKRSTHQPVPSPMNSQTSTNAKVNLSGKLMKFQLNSVQKFDEENILRILQNKIEFEHYFQIDKGKKQKVLLLAVYQCLNGPTRLHKVLNIEGIIHNNSIRTILGKQVSSSKWTVFLYDVKLVLLAHRQDVPNLETSKMIVRYGDLFPCALYFKDHTAY
# Variants of: B1
# Experiment: DHFR protein-fragment complementation in yeast (Abp1-DHFR F[1,2] x partner-DHFR F[3]), deep mutational scanning, second methotrexate selection vs reference; S. cerevisiae, DHFR-PCA selection in liquid with methotrexate at 30 C, two 72 h selections (the score uses the second); reference = the pre-selection culture
row,Variant,screen value
1,chain 1 L571T,"-0.86 DMS score: mean over two replicates of log2(f_test/f_ref + 0.5)/ln 2, minus the synonymous-codon median (not a log2 …"
2,chain 1 E540Q,"-1.08 DMS score: mean over two replicates of log2(f_test/f_ref + 0.5)/ln 2, minus the synonymous-codon median (not a log2 …"
3,chain 1 D567Q,"-2.97 DMS score: mean over two replicates of log2(f_test/f_ref + 0.5)/ln 2, minus the synonymous-codon median (not a log2 …"
4,chain 1 D567H,"-2.08 DMS score: mean over two replicates of log2(f_test/f_ref + 0.5)/ln 2, minus the synonymous-codon median (not a log2 …"
5,chain 1 E563H,"-1.36 DMS score: mean over two replicates of log2(f_test/f_ref + 0.5)/ln 2, minus the synonymous-codon median (not a log2 …"
6,chain 1 N549F,"0.0612 DMS score: mean over two replicates of log2(f_test/f_ref + 0.5)/ln 2, minus the synonymous-codon median (not a log2 …"
7,chain 1 E555C,"-0.0642 DMS score: mean over two replicates of log2(f_test/f_ref + 0.5)/ln 2, minus the synonymous-codon median (not a log2 …"
8,chain 1 L571V,"-0.465 DMS score: mean over two replicates of log2(f_test/f_ref + 0.5)/ln 2, minus the synonymous-codon median (not a log2 …"
9,chain 1 A546M,"-0.41 DMS score: mean over two replicates of log2(f_test/f_ref + 0.5)/ln 2, minus the synonymous-codon median (not a log2 …"
10,chain 1 L582F,"0.039 DMS score: mean over two replicates of log2(f_test/f_ref + 0.5)/ln 2, minus the synonymous-codon median (not a log2 …"
11,chain 1 I559V,"-0.155 DMS score: mean over two replicates of log2(f_test/f_ref + 0.5)/ln 2, minus the synonymous-codon median (not a log2 …"
12,chain 1 K558R,"0.719 DMS score: mean over two replicates of log2(f_test/f_ref + 0.5)/ln 2, minus the synonymous-codon median (not a log2 …"
13,chain 1 E540G,"-1.94 DMS score: mean over two replicates of log2(f_test/f_ref + 0.5)/ln 2, minus the synonymous-codon median (not a log2 …"
14,chain 1 K558A,"-0.817 DMS score: mean over two replicates of log2(f_test/f_ref + 0.5)/ln 2, minus the synonymous-codon median (not a log2 …"
15,chain 1 A537C,"0.422 DMS score: mean over two replicates of log2(f_test/f_ref + 0.5)/ln 2, minus the synonymous-codon median (not a log2 …"
16,chain 1 K576E,"-0.947 DMS score: mean over two replicates of log2(f_test/f_ref + 0.5)/ln 2, minus the synonymous-codon median (not a log2 …"
17,chain 1 D577C,"-0.926 DMS score: mean over two replicates of log2(f_test/f_ref + 0.5)/ln 2, minus the synonymous-codon median (not a log2 …"
18,chain 1 D566N,"-1.27 DMS score: mean over two replicates of log2(f_test/f_ref + 0.5)/ln 2, minus the synonymous-codon median (not a log2 …"
19,chain 1 E575Y,"-0.704 DMS score: mean over two replicates of log2(f_test/f_ref + 0.5)/ln 2, minus the synonymous-codon median (not a log2 …"
20,chain 1 L571K,"-0.248 DMS score: mean over two replicates of log2(f_test/f_ref + 0.5)/ln 2, minus the synonymous-codon median (not a log2 …"
21,chain 1 G578M,"-0.96 DMS score: mean over two replicates of log2(f_test/f_ref + 0.5)/ln 2, minus the synonymous-codon median (not a log2 …"
22,chain 1 E540R,"-2.88 DMS score: mean over two replicates of log2(f_test/f_ref + 0.5)/ln 2, minus the synonymous-codon median (not a log2 …"
23,chain 1 G591L,"-0.124 DMS score: mean over two replicates of log2(f_test/f_ref + 0.5)/ln 2, minus the synonymous-codon median (not a log2 …"
24,chain 1 D544C,"1.15 DMS score: mean over two replicates of log2(f_test/f_ref + 0.5)/ln 2, minus the synonymous-codon median (not a log2 …"

row,Variant,screen value
1,chain 1 I560R,"0.102 DMS score: mean over two replicates of log2(f_test/f_ref + 0.5)/ln 2, minus the synonymous-codon median (not a log2 …"
2,chain 1 K576A,"-0.373 DMS score: mean over two replicates of log2(f_test/f_ref + 0.5)/ln 2, minus the synonymous-codon median (not a log2 …"
3,chain 1 L582M,"-2.34 DMS score: mean over two replicates of log2(f_test/f_ref + 0.5)/ln 2, minus the synonymous-codon median (not a log2 …"
4,chain 1 E540D,"0.44 DMS score: mean over two replicates of log2(f_test/f_ref + 0.5)/ln 2, minus the synonymous-codon median (not a log2 …"
5,chain 1 L574T,"-0.934 DMS score: mean over two replicates of log2(f_test/f_ref + 0.5)/ln 2, minus the synonymous-codon median (not a log2 …"
6,chain 1 G578K,"-0.619 DMS score: mean over two replicates of log2(f_test/f_ref + 0.5)/ln 2, minus the synonymous-codon median (not a log2 …"
7,chain 1 D566H,"-2.26 DMS score: mean over two replicates of log2(f_test/f_ref + 0.5)/ln 2, minus the synonymous-codon median (not a log2 …"
8,chain 1 A546Q,"1.19 DMS score: mean over two replicates of log2(f_test/f_ref + 0.5)/ln 2, minus the synonymous-codon median (not a log2 …"
9,chain 1 K576R,"0.467 DMS score: mean over two replicates of log2(f_test/f_ref + 0.5)/ln 2, minus the synonymous-codon median (not a log2 …"
10,chain 1 L574I,"-0.989 DMS score: mean over two replicates of log2(f_test/f_ref + 0.5)/ln 2, minus the synonymous-codon median (not a log2 …"
11,chain 1 F564Y,"0.127 DMS score: mean over two replicates of log2(f_test/f_ref + 0.5)/ln 2, minus the synonymous-codon median (not a log2 …"
12,chain 1 E575K,"0.0377 DMS score: mean over two replicates of log2(f_test/f_ref + 0.5)/ln 2, minus the synonymous-codon median (not a log2 …"
13,chain 1 K558V,"0.774 DMS score: mean over two replicates of log2(f_test/f_ref + 0.5)/ln 2, minus the synonymous-codon median (not a log2 …"
14,chain 1 L571N,"-0.368 DMS score: mean over two replicates of log2(f_test/f_ref + 0.5)/ln 2, minus the synonymous-codon median (not a log2 …"
15,chain 1 E575H,"0.233 DMS score: mean over two replicates of log2(f_test/f_ref + 0.5)/ln 2, minus the synonymous-codon median (not a log2 …"
16,chain 1 G591K,"0.45 DMS score: mean over two replicates of log2(f_test/f_ref + 0.5)/ln 2, minus the synonymous-codon median (not a log2 …"
17,chain 1 E540S,"-1.11 DMS score: mean over two replicates of log2(f_test/f_ref + 0.5)/ln 2, minus the synonymous-codon median (not a log2 …"
18,chain 1 L571I,"-0.705 DMS score: mean over two replicates of log2(f_test/f_ref + 0.5)/ln 2, minus the synonymous-codon median (not a log2 …"
19,chain 1 D566E,"-1.31 DMS score: mean over two replicates of log2(f_test/f_ref + 0.5)/ln 2, minus the synonymous-codon median (not a log2 …"
20,chain 1 A539V,"-0.172 DMS score: mean over two replicates of log2(f_test/f_ref + 0.5)/ln 2, minus the synonymous-codon median (not a log2 …"
21,chain 1 D568W,"-2.95 DMS score: mean over two replicates of log2(f_test/f_ref + 0.5)/ln 2, minus the synonymous-codon median (not a log2 …"
22,chain 1 L590V,"-0.52 DMS score: mean over two replicates of log2(f_test/f_ref + 0.5)/ln 2, minus the synonymous-codon median (not a log2 …"
23,chain 1 A546Y,"-0.447 DMS score: mean over two replicates of log2(f_test/f_ref + 0.5)/ln 2, minus the synonymous-codon median (not a log2 …"
24,chain 1 E540N,"-1.77 DMS score: mean over two replicates of log2(f_test/f_ref + 0.5)/ln 2, minus the synonymous-codon median (not a log2 …"

# Continued, values first:
row,screen value,Variant
1,"0.556 DMS score: mean over two replicates of log2(f_test/f_ref + 0.5)/ln 2, minus the synonymous-codon median (not a log2 …",chain 1 S579T
2,"-0.774 DMS score: mean over two replicates of log2(f_test/f_ref + 0.5)/ln 2, minus the synonymous-codon median (not a log2 …",chain 1 N549P
3,"0.405 DMS score: mean over two replicates of log2(f_test/f_ref + 0.5)/ln 2, minus the synonymous-codon median (not a log2 …",chain 1 N592Y
4,"0.518 DMS score: mean over two replicates of log2(f_test/f_ref + 0.5)/ln 2, minus the synonymous-codon median (not a log2 …",chain 1 P535Y
5,"-1.55 DMS score: mean over two replicates of log2(f_test/f_ref + 0.5)/ln 2, minus the synonymous-codon median (not a log2 …",chain 1 N586H
6,"0.515 DMS score: mean over two replicates of log2(f_test/f_ref + 0.5)/ln 2, minus the synonymous-codon median (not a log2 …",chain 1 N592R
7,"-0.0573 DMS score: mean over two replicates of log2(f_test/f_ref + 0.5)/ln 2, minus the synonymous-codon median (not a log2 …",chain 1 N586P
8,"2.45 DMS score: mean over two replicates of log2(f_test/f_ref + 0.5)/ln 2, minus the synonymous-codon median (not a log2 …",chain 1 N586M
9,"-2.49 DMS score: mean over two replicates of log2(f_test/f_ref + 0.5)/ln 2, minus the synonymous-codon median (not a log2 …",chain 1 N549W
10,"-0.255 DMS score: mean over two replicates of log2(f_test/f_ref + 0.5)/ln 2, minus the synonymous-codon median (not a log2 …",chain 1 T552G
11,"-2.24 DMS score: mean over two replicates of log2(f_test/f_ref + 0.5)/ln 2, minus the synonymous-codon median (not a log2 …",chain 1 Y587S
12,"0.298 DMS score: mean over two replicates of log2(f_test/f_ref + 0.5)/ln 2, minus the synonymous-codon median (not a log2 …",chain 1 T538R
13,"-0.135 DMS score: mean over two replicates of log2(f_test/f_ref + 0.5)/ln 2, minus the synonymous-codon median (not a log2 …",chain 1 S585N
14,"-0.943 DMS score: mean over two replicates of log2(f_test/f_ref + 0.5)/ln 2, minus the synonymous-codon median (not a log2 …",chain 1 S579L
15,"-1.03 DMS score: mean over two replicates of log2(f_test/f_ref + 0.5)/ln 2, minus the synonymous-codon median (not a log2 …",chain 1 T552H
16,"0.377 DMS score: mean over two replicates of log2(f_test/f_ref + 0.5)/ln 2, minus the synonymous-codon median (not a log2 …",chain 1 N556R
17,"-0.0692 DMS score: mean over two replicates of log2(f_test/f_ref + 0.5)/ln 2, minus the synonymous-codon median (not a log2 …",chain 1 S589M
18,"-0.244 DMS score: mean over two replicates of log2(f_test/f_ref + 0.5)/ln 2, minus the synonymous-codon median (not a log2 …",chain 1 N556Q
19,"-1.01 DMS score: mean over two replicates of log2(f_test/f_ref + 0.5)/ln 2, minus the synonymous-codon median (not a log2 …",chain 1 Y587C
20,"0.632 DMS score: mean over two replicates of log2(f_test/f_ref + 0.5)/ln 2, minus the synonymous-codon median (not a log2 …",chain 1 N586I
21,"-0.58 DMS score: mean over two replicates of log2(f_test/f_ref + 0.5)/ln 2, minus the synonymous-codon median (not a log2 …",chain 1 S579M
22,"-0.0258 DMS score: mean over two replicates of log2(f_test/f_ref + 0.5)/ln 2, minus the synonymous-codon median (not a log2 …",chain 1 N556F
23,"-0.138 DMS score: mean over two replicates of log2(f_test/f_ref + 0.5)/ln 2, minus the synonymous-codon median (not a log2 …",chain 1 W569Y
24,"-0.148 DMS score: mean over two replicates of log2(f_test/f_ref + 0.5)/ln 2, minus the synonymous-codon median (not a log2 …",chain 1 T538Y
25,"-1.6 DMS score: mean over two replicates of log2(f_test/f_ref + 0.5)/ln 2, minus the synonymous-codon median (not a log2 …",chain 1 Y541A
26,"1.47 DMS score: mean over two replicates of log2(f_test/f_ref + 0.5)/ln 2, minus the synonymous-codon median (not a log2 …",chain 1 Y587L
27,"0.074 DMS score: mean over two replicates of log2(f_test/f_ref + 0.5)/ln 2, minus the synonymous-codon median (not a log2 …",chain 1 S589A

# Source: paper PMC7954794 (2021)
